Assay results published in article PMC11934925.
Changes are numbered by the printed parent chain.

How the values were obtained:
FLI1 F362A 259-399 [1] = target: T1, FLI1 F362A 259-399 (UniProt Q01543 259-399, F362A); test: X-ray crystallography
T1 sequence: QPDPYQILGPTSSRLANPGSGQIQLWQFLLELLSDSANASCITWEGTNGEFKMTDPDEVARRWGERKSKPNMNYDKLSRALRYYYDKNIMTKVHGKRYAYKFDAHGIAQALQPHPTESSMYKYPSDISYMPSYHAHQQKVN

FLI1 DBD 259-399 WT = target: T2, FLI1 DBD 259-399 WT (UniProt Q01543 259-399); test: X-ray crystallography
T2 sequence: T1 sequence with A104F

FLI1 F362A 259-399 [2] = target: T1, FLI1 F362A 259-399; test: X-ray crystallography; remark: listed apart in the source
FLI1 276-371 [3] = target: T3, FLI1 276-371 (UniProt Q01543 276-371); test: fluorescence anisotropy
T3 sequence: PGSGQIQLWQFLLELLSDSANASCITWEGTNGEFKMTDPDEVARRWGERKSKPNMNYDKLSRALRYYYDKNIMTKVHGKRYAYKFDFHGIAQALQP

FLI1 276-375 N329E [4] = target: T4, FLI1 276-375 N329E (UniProt Q01543 276-375, N329E;F362A); test: fluorescence anisotropy
T4 sequence: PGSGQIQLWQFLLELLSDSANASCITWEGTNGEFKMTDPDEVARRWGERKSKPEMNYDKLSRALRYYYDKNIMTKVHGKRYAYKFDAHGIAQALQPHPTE

FLI1 F362A 276-375 [5] = target: T5, FLI1 F362A 276-375 (UniProt Q01543 276-375, F362A); test: fluorescence anisotropy
T5 sequence: T4 sequence with E54N

FLI1 F362A 259-375 [6] = target: T6, FLI1 F362A 259-375 (UniProt Q01543 259-375, F362A); test: fluorescence anisotropy
T6 sequence: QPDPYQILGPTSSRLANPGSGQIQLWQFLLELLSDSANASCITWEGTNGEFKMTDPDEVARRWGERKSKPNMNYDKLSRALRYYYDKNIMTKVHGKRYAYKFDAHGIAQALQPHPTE

FLI1 276-375 N329E/D333G [7] = target: T7, FLI1 276-375 N329E/D333G (UniProt Q01543 276-375, N329E;D333G;F362A); test: fluorescence anisotropy
T7 sequence: T4 sequence with D58G

FLI1 F362A 259-371 [8] = target: T8, FLI1 F362A 259-371 (UniProt Q01543 259-371, F362A); test: fluorescence anisotropy
T8 sequence: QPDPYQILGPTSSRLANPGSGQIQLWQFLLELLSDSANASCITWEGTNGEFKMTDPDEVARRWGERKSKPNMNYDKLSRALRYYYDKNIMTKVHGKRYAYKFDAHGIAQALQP

FLI1 F362A 276-399 [9] = target: T9, FLI1 F362A 276-399 (UniProt Q01543 276-399, F362A); test: fluorescence anisotropy
T9 sequence: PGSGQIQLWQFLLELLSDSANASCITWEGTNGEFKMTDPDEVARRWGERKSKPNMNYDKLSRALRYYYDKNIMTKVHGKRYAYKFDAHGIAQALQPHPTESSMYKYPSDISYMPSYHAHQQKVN

FLI1 F362A 259-399 [10] = target: T1, FLI1 F362A 259-399; test: fluorescence anisotropy
FLI1 F362A 276-375 [11] = target: T5, FLI1 F362A 276-375; test: fluorescence anisotropy; remark: listed apart in the source
FLI1 F362A 259-375 [12] = target: T6, FLI1 F362A 259-375; test: fluorescence anisotropy; remark: listed apart in the source
FLI1 F362A 259-371 [13] = target: T8, FLI1 F362A 259-371; test: fluorescence anisotropy; remark: listed apart in the source
FLI1 F362A 276-399 [14] = target: T9, FLI1 F362A 276-399; test: fluorescence anisotropy; remark: listed apart in the source
FLI1 276-375 N329E [15] = target: T4, FLI1 276-375 N329E; test: fluorescence anisotropy; remark: listed apart in the source
FLI1 276-375 D333G = target: T10, FLI1 276-375 D333G (UniProt Q01543 276-375, D333G;F362A); test: fluorescence anisotropy
T10 sequence: T4 sequence with E54N, D58G

FLI1 276-375 N329E/D333G [16] = target: T7, FLI1 276-375 N329E/D333G; test: fluorescence anisotropy; remark: listed apart in the source
FLI1 F362A 259-375 [17] = target: T6, FLI1 F362A 259-375; test: X-ray crystallography
FLI1 F362A 259-399 [18] = target: T1, FLI1 F362A 259-399; test: EMSA
FLI1 F362A 276-399 [19] = target: T9, FLI1 F362A 276-399; test: EMSA
FLI1 276-371 [20] = target: T3, FLI1 276-371; test: EMSA
FLI1 F362A 276-375 [21] = target: T5, FLI1 F362A 276-375; test: EMSA

B1: 4sites (dsDNA)
DNA 1: GACCGGAAGGAAGGAAGGAAGTGCG
DNA 2: CGCACTTCCTTCCTTCCTTCCGGTC
- binding result (FLI1 F362A 259-399 [1]): binds

B2: 2sites (dsDNA)
DNA 1: GACCGGAAGGAAGTG
DNA 2: CACTTCCTTCCGGTC
- binding result (FLI1 DBD 259-399 WT): binds
- binding result (FLI1 F362A 259-399 [2]): binds

B3: 1site_weak (dsDNA)
DNA 1: TTGAAGGAAGAG
DNA 2: CTCTTCCTTCAA
- Kd (FLI1 276-371 [3]): 402 ± 172 nM
- Kd (FLI1 276-375 N329E [4]): 275 ± 39 nM
- Kd (FLI1 F362A 276-375 [5]): 137 ± 34 nM
- Kd (FLI1 F362A 259-375 [6]): 544 ± 288 nM
- Kd (FLI1 276-375 N329E/D333G [7]): 126 ± 14 nM
- Kd (FLI1 F362A 259-371 [8]): 1010 ± 421 nM
- Kd (FLI1 F362A 276-399 [9]): 146 ± 37 nM

B4: 2site_weak-weak (w-w) (dsDNA)
DNA 1: CAGAAAGGAAGGAAGTG
DNA 2: CACTTCCTTCCTTTCTG
- binding signal (FLI1 F362A 259-399 [10]): 41 ± 21 cooperativity factor w
- binding signal (FLI1 F362A 276-375 [11]): 33 ± 20 cooperativity factor w
- binding signal (FLI1 F362A 259-375 [12]): 103 ± 26 cooperativity factor w
- binding signal (FLI1 F362A 259-371 [13]): 22 ± 7 cooperativity factor w
- binding signal (FLI1 F362A 276-399 [14]): 16 ± 10 cooperativity factor w
- binding signal (FLI1 276-375 N329E [15]): 6 ± 6 cooperativity factor w
- binding signal (FLI1 276-375 D333G): ~1 cooperativity factor w
- binding signal (FLI1 276-375 N329E/D333G [16]): ~1 cooperativity factor w

B5: 3sites (dsDNA)
DNA 1: GACCGGAAGGAAGGAAGTG
DNA 2: CACTTCCTTCCTTCCGGTC
- binding result (FLI1 F362A 259-375 [17]): binds

B6: 2site_strong-weak (s-w) (dsDNA)
DNA 1: CAGACCGGAAGGAAGTG
DNA 2: CACTTCCTTCCGGTCTG
- binding result (FLI1 F362A 259-399 [18]): binds
- binding result (FLI1 F362A 276-399 [19]): binds
- binding result (FLI1 276-371 [20]): binds
- binding result (FLI1 F362A 276-375 [21]): binds
